What all share (test): native MS
Data set [1] has as its target T1, Methanocaldococcus jannaschii (Mja) RPP21 (Methanocaldococcus jannaschii, UniProt Q58372 1-128).
T1 sequence: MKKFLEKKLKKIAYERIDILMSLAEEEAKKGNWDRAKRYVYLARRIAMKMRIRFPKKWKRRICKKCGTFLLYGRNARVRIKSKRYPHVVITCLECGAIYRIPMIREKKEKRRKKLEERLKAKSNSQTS

Data set [2] deals with the molecule itself.
The target of data set [3] is T2, Methanocaldococcus jannaschii (Mja) RPP30 (Methanocaldococcus jannaschii, UniProt Q58539 1-232).
T2 sequence: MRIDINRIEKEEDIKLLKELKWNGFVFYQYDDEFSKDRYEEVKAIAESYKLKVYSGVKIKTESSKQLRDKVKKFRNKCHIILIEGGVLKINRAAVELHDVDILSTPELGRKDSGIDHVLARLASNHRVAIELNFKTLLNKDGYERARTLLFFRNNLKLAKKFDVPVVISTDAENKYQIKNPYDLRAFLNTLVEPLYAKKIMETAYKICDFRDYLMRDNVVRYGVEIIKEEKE

B1: Methanocaldococcus jannaschii (Mja) RPP29 (natural protein)
chain: MITPHNILRHELIGLKVEIVEAKNKAMIGIKGKVVDETRNTLVIEKEDGREVVIPKDIAVFLFQLKGCKVKVDGRLLIGRPEERLKKKIKILYPY
As for B1, the binding result in data set [1] is “binds”.

B2: Mja RPP21·RPP29 binary complex (complex, Methanocaldococcus jannaschii)
chain 1: MKKFLEKKLKKIAYERIDILMSLAEEEAKKGNWDRAKRYVYLARRIAMKMRIRFPKKWKRRICKKCGTFLLYGRNARVRIKSKRYPHVVITCLECGAIYRIPMIREKKEKRRKKLEERLKAKSNSQTS
chain 2: MITPHNILRHELIGLKVEIVEAKNKAMIGIKGKVVDETRNTLVIEKEDGREVVIPKDIAVFLFQLKGCKVKVDGRLLIGRPEERLKKKIKILYPY
As to B2, in data set [2], the binding result is listed as “binds”.

B3: Methanocaldococcus jannaschii (Mja) POP5 (natural protein)
chain: MIEMLKTLPPTLREKKRYIAFKILYDEELKEGEVVNLIRKAVLEYYGSWGTSKANPWLVYYDFPYGILRCQRDNVDYVKASLILIREFKEKPVNIICLGVSGTIRKAKIKFLGIKKPKRWFVIRRERLKAKKQK
For the molecule B3, the binding result in data set [3] is recorded as “binds”.

B4: Mja POP5·RPP30 binary complex (complex, Methanocaldococcus jannaschii)
chain 1: MIEMLKTLPPTLREKKRYIAFKILYDEELKEGEVVNLIRKAVLEYYGSWGTSKANPWLVYYDFPYGILRCQRDNVDYVKASLILIREFKEKPVNIICLGVSGTIRKAKIKFLGIKKPKRWFVIRRERLKAKKQK
chain 2: MRIDINRIEKEEDIKLLKELKWNGFVFYQYDDEFSKDRYEEVKAIAESYKLKVYSGVKIKTESSKQLRDKVKKFRNKCHIILIEGGVLKINRAAVELHDVDILSTPELGRKDSGIDHVLARLASNHRVAIELNFKTLLNKDGYERARTLLFFRNNLKLAKKFDVPVVISTDAENKYQIKNPYDLRAFLNTLVEPLYAKKIMETAYKICDFRDYLMRDNVVRYGVEIIKEEKE
As for B4, the binding result in data set [2] is listed as “binds”.

The record behind these values is paper PMC9371926 (Nucleic Acids Research, 2022).
